The results in this text go back to paper PMC13254535, “The RecBCD complex interacts directly with the DNA sliding clamp in Escherichia coli” (Nucleic Acids Research, 2026).

Experiment [1] relates to E. coli BTH101 ∆recB strain (IMR04). In words: UV survival assay (complementation of BTH101 ΔrecB). Type of experiment: cell-based, Escherichia coli. The following applies: expressed from pUT18C in BTH101 ΔrecB; UV 5, 15 or 30 J/m^2; CFU; 2 to 3 biological replicates. How it is done:
Non-transformed BTH101 and BTH101 ∆recB served as positive and negative controls, respectively. All strains were cultured at 30°C to early exponential phase (OD600 around 0.2, measured by Nanodrop One) before treatment.
For UV exposure, bacterial cultures were serially diluted 10-fold in LB. From each dilution, 5 µl was spotted onto four separate LB agar plates supplemented with IPTG (0.5 mM) and the appropriate antibiotics. Once droplets had dried, one plate was kept unexposed as a control, while the remaining three plates were subjected to UV irradiation at doses of 5, 15, or 30 J/m^2 using an CL-1000 ultraviolet crosslinker (UVP). Plates were incubated overnight at 30°C, after which colony-forming units (CFUs) were counted. Survival at each UV dose was calculated as the ratio of CFUs on the UV-exposed plates to CFUs on the unexposed control plate.

Experiment [2] deals with ΔrecA ΔrecB cells. The experiment is described as follows: DNA degradation assay after UV ("reckless" DNA degradation). Type of experiment: cell-based, Escherichia coli. The following applies: expressed from pUT18C in ΔrecA ΔrecB; UV 50 J/m^2, 3 h; Hoechst 33258 microscopy. Here is the method:
(§1) IMR13 (ΔrecA) served as a positive control for RecB-mediated DNA degradation, while IMR19 (ΔrecA ΔrecB) was used as a negative control.
(§2) Overnight cultures were diluted to an OD600 of 0.01 into LB medium supplemented with appropriate antibiotics and incubated with shaking at 37°C until they reached an OD600 of 0.2. Each culture was split into two 1 ml aliquots. One aliquot was fixed immediately in ethanol (50% final concentration) to assess DNA content prior to UV exposure. The second aliquot was pelleted, resuspended in 1× PBS, and exposed to UV light at a dose of 50 J/m^2 (CL-1000 Ultraviolet crosslinker, UVP). […]
(§3) Imaging was performed on a Leica DM6000 B fluorescence microscope equipped with a 100× oil immersion objective (Leica HCX Plan Apochromat 100×, 1.40 NA, PH3 CS), a Leica EL6000 metal-halide illumination system, and a Hamamatsu C9100-14 EM-CCD camera. For each sample, six fields of view were acquired, each including both phase-contrast and fluorescence channels. Fluorescence imaging was conducted using a narrow band-pass filter set optimized for CFP (Excitation: 426–446 nm; Emission: 460–500 nm; exposure time: 30 ms). All imaging parameters—including exposure time, illumination intensity, and gain—were kept constant across all strains, treatments, and replicates to ensure quantitative comparability and minimize experimental bias. […]

In experiment [3] the test system is ΔrecA ΔrecB cells. In words: Basal DNA content without UV. Type of experiment: cell-based, Escherichia coli. Particulars: expressed from pUT18C in ΔrecA ΔrecB; unchallenged; relative to ΔrecA ΔrecB cells. Here is the method:
as §1, §2, §3

Another experiment relates to BTH101 ΔrecB cells. In words: Western blot of RecB expression level. Particulars: pUT18C constructs in BTH101 ΔrecB; Ponceau S normalized; relative to BTH101 wild type. Also noted: species or system Escherichia coli.
In experiment [4] the target is T1, β-clamp (Escherichia coli, UniProt P0A988). Particulars: 3-AT 0.5 mM; ~29 million interaction tests.
T1 sequence (P0A988 whole entry): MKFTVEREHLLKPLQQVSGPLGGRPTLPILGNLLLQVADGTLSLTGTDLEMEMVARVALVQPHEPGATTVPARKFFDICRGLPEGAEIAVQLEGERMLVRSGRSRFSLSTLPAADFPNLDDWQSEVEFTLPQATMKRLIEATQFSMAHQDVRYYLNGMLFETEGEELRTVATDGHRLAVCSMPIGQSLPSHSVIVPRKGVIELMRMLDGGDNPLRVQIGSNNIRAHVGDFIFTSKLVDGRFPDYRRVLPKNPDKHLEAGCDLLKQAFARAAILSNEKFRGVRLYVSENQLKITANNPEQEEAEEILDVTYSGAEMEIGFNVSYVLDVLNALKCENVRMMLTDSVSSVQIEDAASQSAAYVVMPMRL
Description: Yeast-two hybrid screening was outsourced to Hybrigenics (Paris, France). This service employs a high-complexity E. coli prey library (∼3 × 10^7 clones) and follows a robust mating-based screening protocol to identify binary protein interactions. Full-length E. coli dnaN (encoding β-clamp) was cloned into the Gal4 DNA-binding domain expression vector pGBKT7, which carries LEU2 and TRP1 selection markers (bait plasmid). The dnaN bait was screened against an E. coli complementary DNA/genomic prey library provided by Hybrigenics, totaling ~29 million interaction tests. Transformants were selected on medium lacking leucine, tryptophan, and histidine, supplemented with 0.5 mM of 3-amino-1,2,4-triazole (3-AT) to suppress background growth. Positive interactions were confirmed and sequenced by Hybrigenics.
Experiment [5] has as its target T1, β-clamp. Particulars: N-terminally his-tagged RecB as bait, pBAD30, E. coli MG1655; anti-β-clamp western blot.
Protocol: His-tagged recB was cloned into the pBAD30 plasmid (kind gift from Prof. Michael T. Laub, MIT and Howard Hughes Medical Institute, USA) by Dongxuan Gene Technology Co. and transformed into E. coli MG1655. An overnight culture was diluted 1:100 into 1 l of LB broth supplemented with ampicillin (100 µg/ml). When the culture reached an OD600 of 0.5, expression was induced with 0.4% (w/v) L-arabinose. After 2 h of induction at 37°C, cells were harvested by centrifugation (4000 x g, 10 min), washed with Phosphate buffered saline (PBS), and crosslinked with 1% formaldehyde for 20 min at room temperature. Crosslinking was quenched by the addition of glycine to a final concentration of 2.5 M. The cell pellets were washed three times with PBS, flash-frozen in liquid nitrogen, and stored at −80°C.
For lysis, cell pellets were resuspended in 10 ml of lysis buffer (50 mM Tris–HCl, pH 8.0; 500 mM NaCl; 10 mM β-mercaptoethanol; 1 mg/ml lysozyme) and subjected to sonication in 3 × 15-s pulses (Vibra cell, Sonics & Materials, Inc., Newtown, CT, USA). […]
After incubation for 30 min at 4°C with gentle rotation, beads were washed four times with wash buffer (50 mM sodium phosphate, pH 8.0; 300 mM NaCl; 0.01% (v/w) Tween-20). […] Beads were removed magnetically, and eluates were analyzed by SDS–polyacrylamide gel electrophoresis (PAGE). […]
Experiment [6] concerns EH219 cells (GFP-β-clamp, RecB-HaloTag). The following applies: unchallenged; foci within 1 pixel (0.108 µm); three biological replicates.
Protocol: Fixed cells with endogenously tagged recB and dnaN (strain EH219) were imaged. β-clamp was N-terminally tagged with green fluorescence protein (GFP) [48]
Strains were first grown overnight on LB-agar plates with kanamycin for selection. Then, 2 ml LB with kanamycin was inoculated with five plate colonies to create overnight cultures. The next day, overnight cultures were diluted 1:200 in fresh LB medium with kanamycin and cultured at 37°C until exponential growth (OD600 of 0.10). JF549-HTL (5 µM final concentration) was then added to the culture, and incubation continued for another 60 min for staining the RecB HaloTag, before washing five times with LB. […] Samples were fixed by resuspending and incubating them in PBS with 4% (v/w) formaldehyde for 60 min, followed by washing twice with PBS and resuspension in PBS for imaging.
Briefly, we used a Nikon Eclipse Ti2-E inverted microscope equipped with a 60× oil objective, a CrestOptics X-Light V3 spinning disk confocal module (50:400 µm spinning disk), a Lumencor Celeste multi-line laser and two Teledyne Photometrics Kinetix sCMOS cameras. […] Three channels were used for fluorescence imaging: a transmitted light channel for cell outlines (1 ms exposure), in addition to GFP and JF549 fluorescence channels imaged with a 50:400 µm spinning disk. […] The foci numbers per cell were quantified along with their colocalization. […]

Protocol for BTH101 ΔrecB cells: Samples, including purified RecB, β-clamp (purified as previously explained for co-immunoprecipitation), input (10 µg; 0.5%), and pull-down eluates, and samples from BTH101 cultures used in survival assays, were mixed with 1 mM dithiothreitol (DTT) and 1× NuPAGE LDS sample buffer, then heated to 75°C for 10 min. […] SeeBlue Plus2 Pre-stained Protein Standard (Invitrogen) was used as a molecular weight marker.
Proteins were transferred onto 0.2-µm nitrocellulose membranes using the Trans-Blot Turbo Transfer System (Bio-Rad), and membranes were blocked in 5% (w/v) skim milk (Merck) in PBS-T (PBS with 0.1% Tween-20) for 45–60 min at room temperature. […] Following protein transfer, these membranes were also incubated in 0.1% (w/v) Ponceau S solution for 5 min to verify transfer efficiency and account for total protein loading. The stain was visualized, imaged for densitometric normalization, and subsequently removed by washing with deionized water prior to blocking. […]
Relative RecB levels were quantified from the western blot images using Fiji (ImageJ) [58]. […] The lane profiles were plotted, and the measured signal from each lane was first normalized to the relevant Ponceau stain signal from the same lane and then to the wild-type strain.

B1: RecB: wild type RecB subunit of the E. coli RecBCD complex (T18 fusion, his-tagged or HaloTag according to test) (protein)
chain: MSDVAETLDPLRLPLQGERLIEASAGTGKTFTIAALYLRLLLGLGGSAAFPRPLTVEELLVVTFTEAATAELRGRIRSNIHELRIACLRETTDNPLYERLLEEIDDKAQAAQWLLLAERQMDEAAVFTIHGFCQRMLNLNAFESGMLFEQQLIEDESLLRYQACADFWRRHCYPLPREIAQVVFETWKGPQALLRDINRYLQGEAPVIKAPPPDDETLASRHAQIVARIDTVKQQWRDAVGELDALIESSGIDRRKFNRSNQAKWIDKISAWAEEETNSYQLPESLEKFSQRFLEDRTKAGGETPRHPLFEAIDQLLAEPLSIRDLVITRALAEIRETVAREKRRRGELGFDDMLSRLDSALRSESGEVLAAAIRTRFPVAMIDEFQDTDPQQYRIFRRIWHHQPETALLLIGDPKQAIYAFRGADIFTYMKARSEVHAHYTLDTNWRSAPGMVNSVNKLFSQTDDAFMFREIPFIPVKSAGKNQALRFVFKGETQPAMKMWLMEGESCGVGDYQSTMAQVCAAQIRDWLQAGQRGEALLMNGDDARPVRASDISVLVRSRQEAAQVRDALTLLEIPSVYLSNRDSVFETLEAQEMLWLLQAVMTPERENTLRSALATSMMGLNALDIETLNNDEHAWDVVVEEFDGYRQIWRKRGVMPMLRALMSARNIAENLLATAGGERRLTDILHISELLQEAGTQLESEHALVRWLSQHILEPDSNASSQQMRLESDKHLVQIVTIHKSKGLEYPLVWLPFITNFRVQEQAFYHDRHSFEAVLDLNAAPESVDLAEAERLAEDLRLLYVALTRSVWHCSLGVAPLVRRRGDKKGDTDVHQSALGRLLQKGEPQDAAGLRTCIEALCDDDIAWQTAQTGDNQPWQVNDVSTAELNAKTLQRLPGDNWRVTSYSGLQQRGHGIAQDLMPRLDVDAAGVASVVEEPTLTPHQFPRGASPGTFLHSLFEDLDFTQPVDPNWVREKLELGGFESQWEPVLTEWITAVLQAPLNETGVSLSQLSARNKQVEMEFYLPISEPLIASQLDTLIRQFDPLSAGCPPLEFMQVRGMLKGFIDLVFRHEGRYYLLDYKSNWLGEDSSAYTQQAMAAAMQAHRYDLQYQLYTLALHRYLRHRIADYDYEHHFGGVIYLFLRGVDKEHPQQGIYTTRPNAGLIALMDEMFAGMTLEEA
modifications: left off: T18 (Bordetella pertussis CyaA fragment), N-terminal, kept
On to B1, for which the “survival after UV” value in experiment [1] is “fully restores ΔrecB strain survival to the wild-type strain (BTH101) level”. In the experiment on ΔrecA ΔrecB cells [2], the “reckless DNA degradation after UV” value was “restored the reckless degradation phenotype, comparable to that of the ΔrecA strain”. Further, the basal degradation in the experiment with ΔrecA ΔrecB cells [3] is reported as ~50%. For the same molecule, the “RecB expression level relative to endogenous RecB” value with BTH101 ΔrecB cells was “more than eight times higher”. In the experiment with β-clamp [4], the “yeast two-hybrid interaction with β-clamp” value was “possible interaction”. In addition, in the experiment with β-clamp [5], the “pull-down of β-clamp” value is “β-clamp was pulled down and exhibited a strong band on the membrane”. Besides, in experiment [6], the “cells showing RecB–β-clamp colocalization” value is on record as “around 32%”.
